According to patent US20170137533A1 (published 2017):

Assays:
Experiment in all cases: ForteBio
[1] = biological target: SC16.39
[2] = biological target: SC16.46
[3] = biological target: SC16.51
Chain of SC16.51 (Q9NYJ7 27-492): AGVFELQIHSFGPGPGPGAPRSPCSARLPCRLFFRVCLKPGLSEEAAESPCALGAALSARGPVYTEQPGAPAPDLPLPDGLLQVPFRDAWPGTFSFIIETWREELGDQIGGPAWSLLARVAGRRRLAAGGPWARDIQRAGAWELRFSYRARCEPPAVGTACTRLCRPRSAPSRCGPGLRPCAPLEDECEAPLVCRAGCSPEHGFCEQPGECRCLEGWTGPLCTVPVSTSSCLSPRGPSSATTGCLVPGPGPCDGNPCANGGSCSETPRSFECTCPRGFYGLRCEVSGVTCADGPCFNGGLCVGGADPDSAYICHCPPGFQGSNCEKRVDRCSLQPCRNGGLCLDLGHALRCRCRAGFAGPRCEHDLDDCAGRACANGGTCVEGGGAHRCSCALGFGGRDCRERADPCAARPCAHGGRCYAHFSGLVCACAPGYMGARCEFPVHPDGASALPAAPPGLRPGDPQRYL

Chain of SC16.39 (Q9NYJ7 27-492): as above
Chain of SC16.46 (Q9NYJ7 27-492): as above

B1: DLL3 (ligand)
chain: not shown
[1]
  Kd: 1 nM
[2]
  Kd: 0.5 nM
[3]
  Kd: 2 nM
